We go through 7 molecules from US20170369592A1, “NOVEL ANTI-FIBROBLAST ACTIVATION PROTEIN (FAP) ANTIBODIES AND USES DERIVED THEREOF” (Mabimmune Diagnostics AG, priority 2015, published 2017).

Numbering of substitutions follows the chain as printed.

The conditions of data set [1]: cyclization; cited from earlier work.
Data set [2] deals with tumor growth in NSCLC and MCRC. The note with it: mouse models; cited from earlier work.
The conditions of data set [3]: pH 7.8; cited from earlier work.
Data set [4] addresses T1, recombinant human Dipeptidyl Peptidase IV (DPPIV) (human, UniProt P27487 29-766, limits assumed).
T1 construct: Bought; also called rhDPPIV; DPP4
The experiment in a line: ELISA, recombinant human CD26 on the plate, NI-206.82C2 detected with HRP goat anti-human antibody, OD450. On the technique in general: An ELISA detects its analyte on a solid surface through an enzyme-linked reagent.

For data set [5], the target named is T2, recombinant human Fibroblast Activation Protein (FAP) (human, UniProt Q12884 26-760).
T2 sequence (looked up): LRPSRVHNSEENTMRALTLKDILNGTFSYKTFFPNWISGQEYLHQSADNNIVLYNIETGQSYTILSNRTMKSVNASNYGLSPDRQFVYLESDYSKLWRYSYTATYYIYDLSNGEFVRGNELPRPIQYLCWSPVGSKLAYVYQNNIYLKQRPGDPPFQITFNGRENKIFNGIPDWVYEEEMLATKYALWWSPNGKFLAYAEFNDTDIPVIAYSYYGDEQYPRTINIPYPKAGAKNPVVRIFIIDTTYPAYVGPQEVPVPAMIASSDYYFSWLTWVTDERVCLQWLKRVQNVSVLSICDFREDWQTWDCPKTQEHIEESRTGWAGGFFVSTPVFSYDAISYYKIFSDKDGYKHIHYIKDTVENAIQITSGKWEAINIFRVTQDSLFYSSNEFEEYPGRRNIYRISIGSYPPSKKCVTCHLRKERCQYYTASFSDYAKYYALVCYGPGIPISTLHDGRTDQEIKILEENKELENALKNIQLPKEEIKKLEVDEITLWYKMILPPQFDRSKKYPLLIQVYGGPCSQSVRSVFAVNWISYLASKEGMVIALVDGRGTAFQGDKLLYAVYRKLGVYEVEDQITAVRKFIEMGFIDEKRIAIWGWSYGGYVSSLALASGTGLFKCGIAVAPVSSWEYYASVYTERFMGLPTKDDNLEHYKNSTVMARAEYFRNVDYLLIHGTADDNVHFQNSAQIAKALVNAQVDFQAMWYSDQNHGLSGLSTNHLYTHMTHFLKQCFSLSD
The experiment in a line: cell-based or functional assay.

Data set [6] has as its target T2, recombinant human Fibroblast Activation …. Nature of the data set: ELISA, tagged rhFAP captured on the plate with an anti-tag antibody, HRP-labelled NI-206.82C2, TMB, OD 450 nm; axis unit as printed (pM) [continued) B]. The text has this:
Active recombinant human enzymes evaluated in this assay include: Fibroblast Activation Protein (FAP; Sino Biologicals, 10464-H07H), Dipeptidyl Peptidase IV (DPPIV, BPS Bioscience 80040), Dipeptidyl Peptidase 8 (DPP8, BPS Bioscience 80080), Dipeptidyl Peptidase 9 (DPP9, BPS Bioscience 80080), and Prolyl Oligopeptidase/Prolyl Endopeptidase (POP/PREP, BPS Bioscience 80105). Each recombinant peptidase was expressed with a purification tag, and attached to the 96 well ELISA plate using either a mouse anti-Histidine antibody (CloneTech), or a mouse anti-Glutathione S-transferase (GST, Sino Biologicals, 111213-MM02) tag antibody. […] H-Gly-Pro-AMC (ATT Bioquest, 13450) was used to validate the presence and activity of DPP4, DPP9, and DPP8. Z-Gly-Pro-AMC (BaChem, 11145) was used to evaluate the activity of FAP and POP/PREP. […] Following a washing step, bound antibody was detected using 3,3′,5,5′-Tetramethylbenzidine (TMB) substrate.

In data set [7] the target is T3, active recombinant murine FAP (mouse, UniProt P97321 26-761).
T3 sequence (looked up): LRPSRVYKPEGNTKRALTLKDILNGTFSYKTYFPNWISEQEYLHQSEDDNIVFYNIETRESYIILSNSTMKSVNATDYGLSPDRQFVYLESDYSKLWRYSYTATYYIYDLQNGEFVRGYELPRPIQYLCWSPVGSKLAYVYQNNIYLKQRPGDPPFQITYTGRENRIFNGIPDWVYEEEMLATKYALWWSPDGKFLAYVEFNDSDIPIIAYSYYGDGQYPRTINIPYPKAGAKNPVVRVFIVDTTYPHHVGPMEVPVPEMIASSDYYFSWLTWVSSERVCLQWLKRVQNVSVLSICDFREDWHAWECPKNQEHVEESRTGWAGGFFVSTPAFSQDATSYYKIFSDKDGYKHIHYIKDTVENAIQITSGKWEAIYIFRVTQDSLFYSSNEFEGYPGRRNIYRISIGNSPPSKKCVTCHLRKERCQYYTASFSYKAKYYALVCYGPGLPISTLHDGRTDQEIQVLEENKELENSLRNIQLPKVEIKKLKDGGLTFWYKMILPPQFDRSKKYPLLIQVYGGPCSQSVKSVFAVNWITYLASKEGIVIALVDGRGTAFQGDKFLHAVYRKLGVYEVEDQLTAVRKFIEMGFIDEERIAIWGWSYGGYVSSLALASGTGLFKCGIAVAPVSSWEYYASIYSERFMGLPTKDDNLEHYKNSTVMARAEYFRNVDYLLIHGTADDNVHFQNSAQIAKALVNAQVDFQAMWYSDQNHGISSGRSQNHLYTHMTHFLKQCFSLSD
Nature of the data set: cell-based or functional assay.

The target in data set [8] is T2, recombinant human Fibroblast Activation …. Nature of the data set: cell-based or functional assay. The source holds these as a separate data set.
Data set [9] addresses directly coated FAP peptides mixture (cFAP). The experiment in a line: Direct ELISA, mixture of FAP-specific peptides directly coated. The format is binding, human. The note with it: non-linear regression. As for the experimental part: ELISA assays were performed with varying antibody concentrations to validate the binding of the exemplary antibodies of the present invention to FAP and to be able to determine their half maximal effective concentration (EC50). For the exemplary recombinant human NI-206.82C2, NI-206.59B4, NI-206.22F7, NI-206.27E8, NI-206.12G4 and NI-206.17A6 antibodies, 96-well microplates (Costar, Corning, USA) were coated with FAP, with a mixture of the 3 peptides or with BSA (Sigma-Aldrich, Buchs, Switzerland) diluted to a concentration of 5 μg/ml in carbonate ELISA coating buffer (15 mM Na2CO3, 35 mM NaHCO3, pH 9.4) for the direct ELISA. For the capture ELISA, the microplates were coated with mouse anti-His monoclonal antibody (Clontech) diluted to a concentration of 3 μg/ml in PBS, the plates were then blocked, FAP or BSA were diluted to a concentration of 2 μg/ml in PBS and added to the plates to be captured. The binding efficiency of the antibodies was then tested. The exemplary NI-206.82C2 antibody specifically and strongly binds to the captured FAP and less efficiently to the directly coated FAP. The exemplary NI-206.59B4 antibody specifically, strongly and similarly binds to the captured FAP and to the directly coated FAP.
The EC50 values were estimated by a non-linear regression using GraphPad Prism (San Diego, USA) software. […] The binding of NI-206.12G4 towards sFAP was not tested.

T1 sequence (P27487 29-766 limits assumed): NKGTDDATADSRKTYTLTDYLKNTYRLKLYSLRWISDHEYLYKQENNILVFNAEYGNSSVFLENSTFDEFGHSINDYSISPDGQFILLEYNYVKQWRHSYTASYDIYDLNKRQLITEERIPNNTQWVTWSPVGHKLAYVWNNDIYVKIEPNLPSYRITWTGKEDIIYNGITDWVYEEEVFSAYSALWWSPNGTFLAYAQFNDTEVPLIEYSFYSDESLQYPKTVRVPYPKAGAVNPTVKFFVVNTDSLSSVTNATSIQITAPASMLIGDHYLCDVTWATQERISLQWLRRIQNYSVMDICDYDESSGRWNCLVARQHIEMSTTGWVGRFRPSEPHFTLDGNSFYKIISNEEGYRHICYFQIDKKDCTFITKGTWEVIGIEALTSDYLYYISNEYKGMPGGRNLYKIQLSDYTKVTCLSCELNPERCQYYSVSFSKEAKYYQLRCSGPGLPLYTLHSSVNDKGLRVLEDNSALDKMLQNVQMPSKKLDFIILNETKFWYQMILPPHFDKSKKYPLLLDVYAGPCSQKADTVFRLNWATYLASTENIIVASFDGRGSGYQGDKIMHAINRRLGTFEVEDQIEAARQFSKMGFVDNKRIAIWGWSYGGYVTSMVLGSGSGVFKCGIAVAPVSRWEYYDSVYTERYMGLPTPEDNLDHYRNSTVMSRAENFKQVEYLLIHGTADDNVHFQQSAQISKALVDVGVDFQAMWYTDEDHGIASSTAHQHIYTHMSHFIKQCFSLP

Take `N[C@@H](CCC(=O)O)C(=O)N1CCC[C@H]1B(O)O` [PT-630]: in data set [1], the in-vivo stability result is “poor in-vivo stability”. In data set [2], the tumor growth entry was “abrogate tumor growth”.
Take `CC(C)[C@H](N)C(=O)N1CCC[C@H]1B(O)O` [Talabostat, Val-boroPro]: the “stability of inhibitory activity in aqueous media” value in data set [3] is given as “rapidly loses inhibitory activity”.

B1: NI-206.82C2 (antibody, V domains shown)
VH: QVQLQQSGPGLVKPSQTLSLTCAISGDSVSSNSVTWNWIRQSPSRGLEWLGRTYYRSKWYNDYAVSVKGRITINPDTSKNQFYLQLKSVTPEDAAVYYCARDSSILYGDYWGQGTLVTVSS
VL: QAVLTQPSSLSASPGASASLTCTLPSGINVGTYRIFWFQQKPGSPPQYLLSYKSDSDNHQGSGVPSRFSGSKDASANAGILLISGLQSEDEADYYCMIWHSSAWVFGGGTKLTVL
notes: Labelled with HRP or Cy5 in some assays; also called HRP-labelled 82C2
Usually EC50 (read off the curve) stands for the concentration at which the effect is half-maximal. On to B1, for which the binding result in [4] is listed as “no binding (tested: 20 nM)”. In data set [5], the “IC50, inhibition of rhFAP gelatinase activity (DQ-gelatin cleavage)” value is 7.7 nM. The “EC50 (read off the curve)” value in [6] lay within 0.04 to 0.05 nM. Further, the “IC50 (read off the curve) [continued) B]” value in data set [7] was roughly 60 nM. In [8], the “IC50 (read off the curve)” value was roughly 10 nM.

B2: NI-206.17A6: recombinant human-derived monoclonal anti-FAP antibody, variable regions in FIG. 1 (antibody, V domains shown)
VH: QVQLQESGPGLVRSTETLSLTCLVSGDSINSHYWSWLRQSPGRGLEWIGYIYYTGPTNYNPSLKSRVSISLGTSKDQFSLKLSSVTAADTARYYCARNKVFWRGSDFYYYMDVWGKGTTVTVSS
VL: EIVLTQSPGTLSLSLGERATLSCRASQSLANNYLAWYQQKPGQAPRLLMYDASTRATGIPDRFSGSGSGTDFTLTISRLEPEDFAVYYCQQFVTSHHMYIFGQGTKVEIK
B2: in [9], the “EC50, binding to directly coated FAP peptides mixture (cFAP)” value (“EC50, binding” for short) is recorded as “did not show any binding”.

B3: NI-206.59B4: recombinant human-derived monoclonal anti-FAP antibody, variable regions in FIG. 1 (antibody, V domains shown)
VH: QVQLVQSGAEVKKPGASVKVSCKTSGYTFTDYYIHWVRQAPGQGLEWMGWINPNRGGTNYAQKFQGRVTMTRDTSIATAYMELSRLRSDDTAVYYCATASLKIAAVGTFDCWGQGTLVTVSS
VL: SYELTQPPSVSVSPGQTARITCSGDALSKQYAFWFQQKPGQAPILVIYQDTKRPSGIPGRFSGSSSGTTVTLTISGAQADDEADYYCQSADSSGTYVFGTGTKVTVL
Consider B3, for which the “EC50, binding” value in data set [9] is reported as “did not show any binding”.

B4: NI-206.27E8: recombinant human-derived monoclonal anti-FAP antibody, variable regions in FIG. 1 (antibody, V domains shown)
VH: EVQLVESGGGLVEPGGSLRLSCAASGFTFSDAWMNWVRQAPGKGLEWVGRIKTKSDGGTTDYAAPVRGRFSISRDDSKNTLFLEMNSLKTEDTAIYYCFITVIVVSSESPLDHWGQGTLVTVSS
VL: SYELTQPPSVSVSPGQTARITCSGDELPKQYAYWYQQKPGQAPVLVIYKDRQRPSGIPERFSGSSSGTTVTLTISGVQAEDEADYYCQSAYSINTYVIFGGGTKLTVL
For B4, in data set [9], the “EC50, binding” value is on record as “did not show any binding”.

B5: NI-206.12G4: recombinant human-derived monoclonal anti-FAP antibody, variable regions in FIG. 1 (antibody, V domains shown)
VH: EVQLVESGGGLVKPGGSLRLSCAASGFTFSDYYMSWIRQAPGKGLEWISYISSGSSYTNYADSVKGRFTISRDNAKKSVYLEVNGLTVEDTAVYYCARVRYGDREMATIGGFDFWGQGTLVTVSS
VL: B4 VL with E26A, K38S, R51S, Q52E, Y91D, I93G, N94G, Y96S, V97R
On to B5, for which the “EC50, binding” value in data set [9] is given as “did not show any binding”.
